Results taken from publication PMC6158253.

System: T1, BmoR (MarR-type regulator) (Bacteroides fragilis 638R), ORF:dbdd3c1d
T1 sequence: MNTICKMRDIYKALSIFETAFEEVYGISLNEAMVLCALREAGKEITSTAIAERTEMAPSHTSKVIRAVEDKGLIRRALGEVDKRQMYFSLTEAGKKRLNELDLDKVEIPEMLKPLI
Assay: EMSA

For “ACGAGACCGATAAATGTGAGTCGGTTCTTTTTCAAAAATGCTTTAATCATCTTTATTTCAGGGTGTTTTAGAATCTGTCTGAATTTTGTTCGAGATTGTTTTGAGATTTATTTTCAAGGATATTCTCTTGTCTCTGTGAAGGCATAGCGGGCTATGTGACGCATGAAAACA (double strand) [BF638R_2699-2701 operon promoter, 171 bp]”, the binding was “no binding”.

“CCGGCCTCCATATCAAACAATAACCCGTTGCAACCTATGGATATTGGTGGTGTTCCATTCTATCGTACCTATGCCGTTAATTTAACCGTAAGATTCTAAAACATCTATATTGAAAGATATGAAAACATTTAAATATTTATTTGCAGGAGTTTGTTCCGTGT (double strand) [BF638R_4194 promoter (Methods text says BF638R_4199), 161 bp]” was tested, and the binding was “no binding”.

“CCTGCTACGCCTCCAATAATAATAATCTTCATTTGAATATATTTTCGTTTTAAAATAGTTTCCTATGGAAATAAACGTTTGCCGACTTAAAAAGGTTCATGGAAAAGCTTAAAAAATTAACAAGTATGGGTTATCTTACTTACGGAAGTGC (double strand) [BF638R_0572-bmoR operon promoter (bmoO), 151 bp]” was tested, and the binding was “binds”.

For “CGTCTGACAGCAAGATAAAGTCCCTTAAAAGGGCCATGTTTCTTAATCGCTTCAATAGCGTATTGCGAACAAGTAGGAGTGAAACGACATGAAGGAGGAGT (double strand) [hlyD fragment (non-competitor DNA), 101 bp]”, the binding was “no binding”.
